Assay results as given in patent US20250154262A1.

Key:
hFcγRIIIa-V158 (human) [1] = biological target: hFcγRIIIa-V158 (human) (UniProt P08637); experiment: SPR, further study
hFcγRIIIa-V158 (human) [2] = biological target: hFcγRIIIa-V158 (human) (UniProt P08637); experiment: SPR (Carterra LSA), protein AG capture
hFcγRIIIa-V158 (human) [3] = biological target: hFcγRIIIa-V158 (human) (UniProt P08637); experiment: SPR (Carterra LSA), captured on protein A/G, hFcγRIIIa-V158 injected, 1:1 fit [Cont. 3]
hFcγRIIIa-V158 (human) [4] = biological target: hFcγRIIIa-V158 (human) (UniProt P08637); experiment: SPR (Carterra LSA), captured on protein A/G, hFcγRIIIa-V158 injected, 1:1 fit [Cont. 7]
hFcγRIIIa-V158 (human) [5] = biological target: hFcγRIIIa-V158 (human) (UniProt P08637); experiment: SPR (Carterra LSA), captured on protein A/G, hFcγRIIIa-V158 injected, 1:1 fit
hFcγRIIIa-V158 (human) [6] = biological target: hFcγRIIIa-V158 (human) (UniProt P08637); experiment: SPR (Carterra LSA), captured on protein A/G, hFcγRIIIa-V158 injected, 1:1 fit [Cont. 5]

hFcγRIIIa-V158 (human), sequence (P08637 17-208 F176V limits assumed): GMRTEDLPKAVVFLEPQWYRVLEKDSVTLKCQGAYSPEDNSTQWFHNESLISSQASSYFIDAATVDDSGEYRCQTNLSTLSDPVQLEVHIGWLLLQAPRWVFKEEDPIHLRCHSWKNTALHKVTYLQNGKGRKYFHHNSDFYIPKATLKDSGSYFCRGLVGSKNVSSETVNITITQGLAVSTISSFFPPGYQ

Substance | Fold Change vs. WT (hFcγRIIIa-V158 (human) [1]) | Kd (hFcγRIIIa-V158 (human) [1]) | koff (hFcγRIIIa-V158 (human) [1]) | kon (hFcγRIIIa-V158 (human) [1]) | Kd (hFcγRIIIa-V158 (human) [2]) | further results
H268D, S267D, A339T (antibody) | 4 fold | 119 nM | 0.0525 s⁻¹ | 442000 M⁻¹ s⁻¹ |  | 
H268D, S298A (antibody) |  | 95.7 nM |  |  |  | 
H268D, Y373W (antibody) |  | 221 nM |  |  |  | 
H268D, Y373W, S298A (antibody) | 5.8 fold | 82.6 nM | 0.0273 s⁻¹ | 332000 M⁻¹ s⁻¹ |  | 
H268D_A330Y_D376V (antibody) |  | 152 nM |  |  | 87.6 nM | 
H268D_L251Q_L314M_S298A (antibody) | 7.8 fold | 60.8 nM | 0.0279 s⁻¹ | 509000 M⁻¹ s⁻¹ | 24.6 nM | Fold-change relative to WT (hFcγRIIIa-V158 (human) [2]): 11.8 fold; koff (hFcγRIIIa-V158 (human) [2]): 0.0125 s⁻¹; kon (hFcγRIIIa-V158 (human) [2]): 509000 M⁻¹ s⁻¹
H268D_L251Q_S298A (antibody) |  | 55 nM |  |  | 31.1 nM | 
H268D_L314T (antibody) | 3.8 fold | 125 nM | 0.0481 s⁻¹ | 384000 M⁻¹ s⁻¹ | 83 nM | Fold-change relative to WT (hFcγRIIIa-V158 (human) [2]): 3.5 fold; koff (hFcγRIIIa-V158 (human) [2]): 0.026 s⁻¹; kon (hFcγRIIIa-V158 (human) [2]): 314000 M⁻¹ s⁻¹
H268E, L314T, D376V (antibody) |  | 159 nM |  |  |  | 
WT (from UniProt P01857 1-330) (antibody) |  | 477 nM |  |  | 289 nM | Kd (hFcγRIIIa-V158 (human) [3]): 290 nM; Kd (hFcγRIIIa-V158 (human) [4]): 350 nM; Kd (hFcγRIIIa-V158 (human) [5]): 350 nM
adalimumab (antibody) |  |  |  |  |  | Kd (hFcγRIIIa-V158 (human) [4]): 190 nM; Kd (hFcγRIIIa-V158 (human) [6]): 310 nM
